Laboratory results taken from patent publication US10500249B2, “Compositions and methods for preventing or treating diseases, conditions, or processes characterized by aberrant fibroblast proliferation and extracellular matrix deposition” (MOERAE MATRIX, INC., priority 2014, dated 2019).

What was measured:
Assay in all cases: Kinase Profiling Assay
Type in all cases: biochemical
Conditions in all cases: 100 μM
MST1 (h) = biological target: T1, MST1 (h) (Homo sapiens, UniProt Q13043)
T1 construct: purchased Millipore
T1 sequence (Q13043 1-487): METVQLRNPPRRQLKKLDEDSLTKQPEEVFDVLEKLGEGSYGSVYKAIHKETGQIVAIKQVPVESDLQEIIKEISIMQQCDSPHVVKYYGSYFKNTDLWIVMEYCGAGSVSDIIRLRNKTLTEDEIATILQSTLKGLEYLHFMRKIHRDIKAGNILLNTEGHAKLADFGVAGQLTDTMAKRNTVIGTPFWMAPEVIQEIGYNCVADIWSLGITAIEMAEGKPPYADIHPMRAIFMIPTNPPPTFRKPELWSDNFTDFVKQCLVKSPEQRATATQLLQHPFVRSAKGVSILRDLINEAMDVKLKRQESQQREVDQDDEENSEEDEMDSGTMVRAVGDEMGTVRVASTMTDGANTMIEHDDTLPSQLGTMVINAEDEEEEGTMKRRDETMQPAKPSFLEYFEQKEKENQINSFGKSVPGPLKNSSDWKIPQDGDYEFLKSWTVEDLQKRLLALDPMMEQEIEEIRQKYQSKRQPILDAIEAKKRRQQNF
Procedure, shortened: (§1)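 Scintillation counting quantifies radiolabeled, positively charged substrate retained on a negatively charged filter after kinase reaction with labeled ATP; inhibitor peptide present.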

CHK2 (h) = biological target: T2, CHK2 (h) (Homo sapiens, UniProt O96017)
T2 construct: purchased Millipore
Procedure, shortened: as §1

PDK1 (h) = biological target: T3, PDK1 (h) (Homo sapiens, UniProt O15530)
T3 construct: purchased Millipore
T3 sequence (O15530 1-556): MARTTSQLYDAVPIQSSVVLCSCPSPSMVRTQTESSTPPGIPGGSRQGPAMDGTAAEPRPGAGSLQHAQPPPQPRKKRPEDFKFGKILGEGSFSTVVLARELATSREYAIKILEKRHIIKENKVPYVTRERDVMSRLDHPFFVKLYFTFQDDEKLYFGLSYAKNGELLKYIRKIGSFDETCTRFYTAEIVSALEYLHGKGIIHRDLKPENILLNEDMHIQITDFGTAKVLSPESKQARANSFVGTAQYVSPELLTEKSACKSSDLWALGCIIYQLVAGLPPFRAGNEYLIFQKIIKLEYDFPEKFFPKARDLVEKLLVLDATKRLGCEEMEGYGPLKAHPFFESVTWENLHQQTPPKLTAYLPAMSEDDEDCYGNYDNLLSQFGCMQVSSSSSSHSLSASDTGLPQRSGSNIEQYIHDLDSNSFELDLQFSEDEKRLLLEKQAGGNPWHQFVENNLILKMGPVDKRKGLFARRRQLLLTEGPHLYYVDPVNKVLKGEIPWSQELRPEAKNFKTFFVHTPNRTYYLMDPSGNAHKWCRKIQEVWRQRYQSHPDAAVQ
Procedure, shortened: as §1

EphB1 (h) = biological target: T4, EphB1 (h) (Homo sapiens, UniProt P54762)
T4 sequence (P54762 18-984): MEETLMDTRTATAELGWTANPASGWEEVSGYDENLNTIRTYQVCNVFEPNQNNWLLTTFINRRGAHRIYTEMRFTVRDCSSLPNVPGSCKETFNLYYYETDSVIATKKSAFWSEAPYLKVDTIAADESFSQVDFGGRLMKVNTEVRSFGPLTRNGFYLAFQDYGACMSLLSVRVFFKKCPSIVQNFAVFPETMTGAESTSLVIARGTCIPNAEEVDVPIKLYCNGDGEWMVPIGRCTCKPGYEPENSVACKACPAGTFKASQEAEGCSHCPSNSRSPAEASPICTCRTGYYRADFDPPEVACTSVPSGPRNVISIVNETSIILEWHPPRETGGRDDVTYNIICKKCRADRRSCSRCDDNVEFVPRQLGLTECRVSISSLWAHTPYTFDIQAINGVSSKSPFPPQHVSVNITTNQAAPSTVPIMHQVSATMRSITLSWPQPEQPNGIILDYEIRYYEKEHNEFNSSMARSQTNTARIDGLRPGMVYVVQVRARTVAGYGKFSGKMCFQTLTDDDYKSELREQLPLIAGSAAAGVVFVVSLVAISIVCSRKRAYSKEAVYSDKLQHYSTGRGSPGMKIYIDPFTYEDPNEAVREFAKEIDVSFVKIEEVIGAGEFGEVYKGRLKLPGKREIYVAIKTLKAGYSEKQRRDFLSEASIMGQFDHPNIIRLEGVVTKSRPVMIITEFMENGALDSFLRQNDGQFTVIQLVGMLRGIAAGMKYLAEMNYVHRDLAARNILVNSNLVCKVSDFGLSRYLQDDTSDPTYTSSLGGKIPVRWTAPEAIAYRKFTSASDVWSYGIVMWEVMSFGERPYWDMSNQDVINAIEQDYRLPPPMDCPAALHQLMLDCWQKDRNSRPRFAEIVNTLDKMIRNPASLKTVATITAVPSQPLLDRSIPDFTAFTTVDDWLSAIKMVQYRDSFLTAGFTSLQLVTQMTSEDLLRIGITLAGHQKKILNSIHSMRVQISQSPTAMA
Procedure, shortened: as §1

NEK3 (h) = biological target: T5, NEK3 (h) (Homo sapiens, UniProt P51956)
T5 construct: purchased Millipore
T5 sequence (P51956 1-506): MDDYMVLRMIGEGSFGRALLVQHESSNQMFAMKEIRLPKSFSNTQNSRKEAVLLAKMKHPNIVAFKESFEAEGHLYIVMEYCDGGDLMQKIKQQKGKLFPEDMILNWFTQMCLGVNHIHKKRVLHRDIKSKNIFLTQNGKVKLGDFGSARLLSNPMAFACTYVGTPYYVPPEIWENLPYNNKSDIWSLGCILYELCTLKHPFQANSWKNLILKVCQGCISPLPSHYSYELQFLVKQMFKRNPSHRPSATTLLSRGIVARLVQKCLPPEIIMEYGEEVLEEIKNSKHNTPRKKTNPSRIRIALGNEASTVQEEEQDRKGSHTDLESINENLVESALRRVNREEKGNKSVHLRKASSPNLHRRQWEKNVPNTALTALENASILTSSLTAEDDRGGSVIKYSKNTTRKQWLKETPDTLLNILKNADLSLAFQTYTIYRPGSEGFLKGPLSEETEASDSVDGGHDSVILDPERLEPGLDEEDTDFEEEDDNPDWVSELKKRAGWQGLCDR
Procedure, shortened: as §1

SAPK2b (h) = SAPK2b (h) (Homo sapiens, UniProt Q15759)
Procedure, shortened: as §1

Chain of SAPK2b (h) (Q15759 whole entry): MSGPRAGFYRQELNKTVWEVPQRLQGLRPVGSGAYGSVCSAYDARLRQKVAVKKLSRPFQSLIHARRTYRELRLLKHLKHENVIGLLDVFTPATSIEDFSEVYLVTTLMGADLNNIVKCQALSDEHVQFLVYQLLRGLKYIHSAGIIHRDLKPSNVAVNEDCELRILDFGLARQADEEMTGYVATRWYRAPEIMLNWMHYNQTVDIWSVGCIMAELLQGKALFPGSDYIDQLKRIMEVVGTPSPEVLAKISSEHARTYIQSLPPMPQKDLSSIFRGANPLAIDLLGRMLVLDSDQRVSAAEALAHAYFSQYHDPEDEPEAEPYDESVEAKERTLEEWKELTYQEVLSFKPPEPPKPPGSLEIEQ
T2 sequence (O96017 whole entry): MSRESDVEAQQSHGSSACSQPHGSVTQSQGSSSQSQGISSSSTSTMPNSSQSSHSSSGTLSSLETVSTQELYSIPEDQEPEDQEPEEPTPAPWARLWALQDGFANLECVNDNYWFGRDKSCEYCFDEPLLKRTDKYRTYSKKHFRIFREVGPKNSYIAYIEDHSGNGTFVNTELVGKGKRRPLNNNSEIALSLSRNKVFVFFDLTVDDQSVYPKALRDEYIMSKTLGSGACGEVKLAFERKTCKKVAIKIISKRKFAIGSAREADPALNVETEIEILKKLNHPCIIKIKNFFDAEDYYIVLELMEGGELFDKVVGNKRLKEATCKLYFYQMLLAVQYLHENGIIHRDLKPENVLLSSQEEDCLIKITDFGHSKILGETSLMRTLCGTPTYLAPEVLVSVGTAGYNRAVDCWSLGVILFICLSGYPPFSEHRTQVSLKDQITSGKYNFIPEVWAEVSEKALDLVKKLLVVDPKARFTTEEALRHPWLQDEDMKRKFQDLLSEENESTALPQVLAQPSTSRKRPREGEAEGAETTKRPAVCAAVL

Sequence | % activity (MST1 (h)) [%] | % activity (CHK2 (h)) [%] | % activity (PDK1 (h)) [%] | % activity (EphB1 (h)) [%] | % activity (NEK3 (h)) [%] | % activity (SAPK2b (h)) [%]
FAKLAARLYRKALARQLGVAA [MMI-0300] | 14 | 66 | 135 | 44 | 92 | 81
HRRIKAWLKKIKALARQLGVAA (Mammalian) [MMI-0500] | 3 | 13 | 178 | 37 | 20 | 42
KAFAKLAARLYRKALARQLGVAA [MMI-0400] | 6 | 54 | 159 | 58 | 85 | 82
YARAAARQARAKALNRQLGVA (Mammalian) [MMI-0200] | 72 |  | 143 | 95 | 100 | 95
